Assay results published in US20130095098A1 (UCB, published 2013).

Legend:
[1] = molecular target: T1, human PD-1 (Programmed Death 1), full-length, expressed on transiently transfected HEK293 cells (human, UniProt Q15116 25-288); experiment: flow cytometry on HEK293 cells transiently transfected with human PD-1; rat anti-mouse IgG secondary
T1 construct: whole, on cells; also called CD279; PDCD1
Description: (§1) HEK293 cells were transiently transfected by culturing at 5×10⁶/well with 5 μg human PD-1 DNA and 293 fectin (Invitrogen) overnight in 6 well plates. […] Cells were washed with PBS and incubated with an appropriate secondary antibody, either FITC Mouse anti Human IgG (05-4211 Zymed, 1:20 dilution) or rat anti Mouse IgG (04-6111 Zymed, 1:20 dilution) for 1 hr at 4° C. Flow cytometry analysis was performed on a FACSCalibur (Becton Dickinson).

[2] = molecular target: T1, human PD-1 (Programmed Death 1), …; experiment: flow cytometry on HEK293 cells transiently transfected with human PD-1; FITC mouse anti-human IgG secondary
Description: as §1

T1 sequence (Q15116 25-288): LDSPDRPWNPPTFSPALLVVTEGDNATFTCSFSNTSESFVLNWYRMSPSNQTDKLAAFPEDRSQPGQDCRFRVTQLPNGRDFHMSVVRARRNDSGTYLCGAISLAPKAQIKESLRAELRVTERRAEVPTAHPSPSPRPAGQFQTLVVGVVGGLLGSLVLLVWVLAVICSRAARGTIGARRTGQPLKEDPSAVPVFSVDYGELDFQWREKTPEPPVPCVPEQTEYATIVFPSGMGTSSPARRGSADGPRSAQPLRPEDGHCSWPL

Binder | binding result [1] | binding result [2]
antibody CA051-00948 (948 murine parental; cloned recombinant antibody derived from hybridoma Clone 10) (antibody, IgG1, V domains shown, also called Ab948) VH: DVQLQESGPGLVKPSQSLSLTCTVTGYSITSDYAWNWIRQFPGNKLEWMGYINYSGSTSYNPSLKSRISITRDTSKNQFFLQLNSVTTEDTATYYCARWIGSSAWYFDVWGAGTTVTVS VL: DVLMTQTPLSLPVSLGDQASISCRSGQNIVHSNGNTYLEWYLQKPGQSPKLLIYKVSNRFFGVPDRISGSGSGTDFTLKISRVEAEDLGVYFCFQGSHVPFTFGSGTKLEIK | binds | –
948.g1 (948 humanised graft; gL1 light chain, g1 heavy chain, human gamma-4 S241P / human kappa) (antibody, human IgG4 S228P, kappa, V domains shown) VH: EVQLQESGPGLVKPSQTLSLTCTVTGYSITSDYAWNWIRQPPGKKLEWMGYINYSGSTSYNPSLKSRVTISRDTSKNQFSLKLSSVTAADTAVYYCARWIGSSAWYFDVWGQGTLVTVSS VL: DVLMTQTPLSLSVTPGQPASISCRSGQNIVHSNGNTYLEWYLQKPGQSPKLLIYKVSNRFFGVPDRISGSGSGTDFTLKISRVEAEDVGVYFCFQGSHVPFTFGQGTKLEIKR | – | binds
